Reference: the supplement of paper PMC10567573

B1: TRIM43 (parent)
chain: YQEIFQQLQRSWVKMDQKSKHLKE

Variants of: B1
Assay: protein stability index of a GFP-peptide fusion (GPS, HEK-293T) (PSI 1-6); higher = more stable
Details: c terminus: a fixed tail appended
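Also: lentivirally expressed fusions sorted by FACS into six bins by GFP to DsRed ratio, PSI derived from sequencing read proportions per bin multiplied by bin number.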

Protein stability index, by site and new letter:
K18: V 1.69, Q 2.4, S 2, I 1.37, H 2.04, R 2.57, A 2.4, Y 1.86, D 2.87, F 1.44, W 1.77, N 2.34, C 1.94
K23: Q 2.11, P 2.08, E 2.6, W 2.33, I 3.31, D 2.41, G 2.54, N 2.03, M 2.33, C 1.74, F 1.47, Y 1.58, V 1.92, A 2.92, H 1.79
Q7: P 2.28, E 2.52, Y 2.53, W 3.41, D 2.79, I 2.08, K 1.61, V 1.65, T 1.82, L 2.11, G 2.59, C 1.94, H 2.42, R 1.66, N 2.23
E24: W 2.41, V 1.81, A 1.89, M 1.71, T 1.91, L 2.45, C 2.13, N 2.28, K 1.99, H 2.33, G 1.78, I 1.78, R 1.8, Q 1.57
Y1: H 3.7, M 1.99, R 2.96, P 3.04, V 1.29, C 1.56, N 3.73, W 3.04, A 1.86, T 2.88, K 3.46, L 1.5, E 4.08, S 3.7, I 2.04
Q6: M 2.49, V 1.85, T 2.8, C 2.07, D 2.74, Y 2.65, F 1.93, N 2.21, R 2.63, L 1.55, G 2.52, H 2.17
Q9: R 3.11, N 2.25, L 1.83, V 1.88, F 2.23, I 1.71, M 2.32, K 1.88, D 2.6
K20: I 1.95, R 1.59, G 2.31, T 1.86, Q 2.36, D 2, A 2.74, V 1.94, Y 1.68, P 2.48, F 2.56, N 2.44
E3: H 2.47, Y 2.39, R 3.7, G 1.35, D 2.18, S 2.11, K 1.76, A 2.23, N 1.58, Q 1.63, F 1.53, V 1.93, M 2.13, W 1.68, T 1.52, C 2.13, L 1.79
R10: W 1.89, H 2.27, K 2.12, T 1.94, C 1.96, G 3.03, E 2.66, L 2.4, F 1.78, D 2.99, Y 1.79, N 2.84
M15: Q 2.3, L 2, K 2.61, Y 2.05, V 2.13, N 2.59, G 2.35, T 2.53, D 2.54, P 3.15, A 2.37, W 1.48, S 2.46, I 1.62, C 2.32, E 2.87
I4: K 1.87, Y 1.5, H 1.85, P 1.93, F 1.8, W 2.94, D 1.47, Q 1.85, G 1.01, R 2.05, N 1.61, V 2.16, C 1.44, T 1.96, E 1.78, A 1.98, L 2.19
S19: T 2.86, I 3.05, W 2.56, H 1.83, M 2.44, A 3.09, P 2.3, G 1.86, D 2.68, K 1.77, L 3.31, V 2.12, R 1.98, F 1.95
H21: R 2.53, A 2.23, W 1.53, F 1.94, N 2.59, D 2.56, P 1.64, K 2.04, C 2.65, L 1.91, E 2.68
F5: W 2.19, H 3.65, Y 2.57, I 1.7, M 2.22, V 2.82, N 3.47, K 3.17, E 4.52, L 2.65, R 3.15, D 4.05, A 2.94
L8: W 2.85, M 2.66, K 3.1, N 2.87, V 2.09, R 3.03, A 2.78, I 1.97, E 3.06, T 3.24, H 3.06, P 2.06, C 2.44, D 2.71, S 2.58, Y 2.66
Q2: W 2.3, S 1.22, G 1.66, V 1.72, R 1.56, P 2.15, C 2.36, Y 1.72, K 2.19, D 2.64, E 3.44, T 2.18, F 1.55, N 2.14
D16: T 2.09, P 2.12, A 3.13, L 3.47, E 2.13, Q 2.52, R 2.2, W 2.96, G 1.76, N 3.48, V 1.69, K 2.35, H 2.73, I 2.51
L22: K 2.45, T 2.62, Q 2.91, R 2.75, Y 1.92, W 1.65, A 2.22, M 2.13, F 1.91, V 2.39, C 2.6, H 2.35
V13: Y 2.21, I 2.14, Q 2.2, S 2.38, C 2.02, R 1.53, P 2.62, E 3.48, L 1.92, K 2.3, T 2.08, D 2.54, A 2.04, W 1.16
W12: H 2.5, M 2.42, G 2.84, E 3.16, V 2.69, R 3.12, I 2.29, P 3.48, K 2.7, F 2.57, T 2.88, D 2.78, A 3.07
K14: N 2.99, D 2.77, Q 2.36, C 1.97, Y 2.2, G 2.6, E 2.92, F 2.35, V 2.18, R 1.94, L 2.44, S 2.1
S11: G 2.1, K 1.93, H 2.18, N 2.73, L 2.21, Q 1.8, I 2.57, E 1.75, W 1.56, C 1.97
Q17: V 2.17, L 1.92, Y 1.72, K 2.1, D 2.01, A 2.1, C 2.05, F 2.68, G 1.96, S 2.29, E 1.98
